Laboratory results: article PMC3085015

Key:
wild type Rop = wild type Rop (UniProt P03051); assay: SEC
F14Bpa-Rop [1] = target: F14Bpa-Rop (UniProt P03051); assay: cross-linking + SEC
F14Bpa-Rop [2] = target: F14Bpa-Rop (UniProt P03051); assay: SEC
F14Bpa-Rop [3] = target: F14Bpa-Rop (UniProt P03051); assay: cross-linking
F14Bpa-Rop [4] = target: F14Bpa-Rop (UniProt P03051); assay: cross-linking; remark: listed apart in the source

stoichiometry N (wild type Rop)	stoichiometry N (F14Bpa-Rop [1])	stoichiometry N (F14Bpa-Rop [2])	stoichiometry N (F14Bpa-Rop [3])	stoichiometry N (F14Bpa-Rop [4])	Substance
2	–	–	–	–	wild type Rop (from UniProt P03051 1-63) (natural protein)
–	4	2	4	4	F14Bpa-Rop (from UniProt P03051 1-63) (natural protein)
